Data on three substances can be found in article PMC9504841.

Assay [1] deals with MPER_(664–690) peptide (HIV-1). Briefly: ITC; Fab at 3 μM titrated with 12 injections of 40 μM peptide; VP-ITC, 25 °C; 10 mM sodium phosphate pH 7.5, 150 mM NaCl, 10% glycerol, 5 mM DPC; one-site binding model.
For assay [2], the target named is native HIV-1 Env (PVO, clone 4) on virions (HIV-1).

As usually defined, the Kd is the free concentration of one partner at which half of the binding sites on the other are occupied at equilibrium, for simple one-to-one binding. Low values mean higher affinity, high ones lower affinity. By stoichiometry N is commonly meant a count of units in the complex or per binding partner. 10E8-2R Fab (LC S30R/N52R): in assay [1], the Kd was determined as 46.3 nM, the dH is -6.24 kcal/mol and the stoichiometry N came out at 1.17.

Regarding 10E8-2RF Fab (LC S30R/N52R, HC S100cF), in assay [1], the dissociation constant Kd was 41.3 nM, the dH is -2.3 kcal/mol and the stoichiometry N was found to be 1.16. Further, the pseudovirus neutralisation (cell-entry inhibition, TZM-bl cells; JRCSF and PVO.4 PsV): potency of the Fab against the parental Fab 10E8-WT in assay [2] was found to be 50 fold.

Turning to 10E8-WT Fab, in assay [1], the Kd came to 32.4 nM, the dH is -6.73 kcal/mol and the stoichiometry N was found to be 1.12.
